This note sets out measurements from US20240400708A1.

The term Kd denotes the constant that tells how readily two partners part at equilibrium. The low end stands for tighter binding, the high end for weaker binding.

The target in the experiment is feline FcRn complex (FcRn-α subunit and β-microglobulin), biotin labeled (feline). Put plainly: SPR, pH 6.

Residue numbers refer to the chain shown, from its start. Names and notes keep the numbering of the source.

B1: feline IgG1a S254A (antibody, part only; not given: Variable domains, not shown: another chain or arm of the molecule)
constant: ASTTAPSVFPLAPSCGTTSGATVALACLVLGYFPEPVTVSWNSGALTSGVHTFPAVLQASGLYSLSSMVTVPSSRWLSDTFTCNVAHPPSNTKVDKTVRKTDHPPGPKPCDCPKCPPPEMLGGPSIFIFPPKPKDTLSIARTPEVTCLVVDLGPDDSDVQITWFVDNTQVYTAKTSPREEQFNSTYRVVSVLPILHQDWLKGKEFKCKVNSKSLPSPIERTISKAKGQPHEPQVYVLPPAQEELSRNKVSVTCLIKSFHPPDIAVEWEITGQPEPENNYRTTPPQLDSDGTYFVYSKLSVDRSHWQRGNTYTCSVSHEALHSHHTQKSLTQSPGK
Turning to B1, the Kd came to 53 nM.

B2: feline IgG1a S254T (antibody, part only; not given: Variable domains, not shown: another chain or arm of the molecule)
constant: B1 constant with A140T
B2: the dissociation constant Kd is 16.1 nM.

B3: feline IgG1a S428E (antibody, part only; not given: Variable domains, not shown: another chain or arm of the molecule)
constant: B1 constant with A140S, S316E
In turn, B3 came in with a Kd of 184 nM. This Kd lies about 11-fold higher than the previous one.

B4: feline IgG1a T256L (antibody, part only; not given: Variable domains, not shown: another chain or arm of the molecule)
constant: B1 constant with A140S, T142L
For B4, the dissociation constant (Kd) was found to be 86.5 nM.

B5: feline IgG1a T256K (antibody, part only; not given: Variable domains, not shown: another chain or arm of the molecule)
constant: B1 constant with A140S, T142K
Molecule B5 came in with a Kd of 107 nM.

B6: feline IgG1a S254G (antibody, part only; not given: Variable domains, not shown: another chain or arm of the molecule)
constant: B1 constant with A140G
With B6, the dissociation constant (Kd) was found to be 64.2 nM.

B7: feline IgG1a T256H (antibody, part only; not given: Variable domains, not shown: another chain or arm of the molecule)
constant: B1 constant with A140S, T142H
For B7, the Kd is 87.4 nM.

B8: feline IgG1a S428R (antibody, part only; not given: Variable domains, not shown: another chain or arm of the molecule; small tags and cut ends)
constant: B1 constant with A140S, S316R
For the molecule B8, the Kd amounted to 68.6 nM.

B9: feline IgG1a S428M (antibody, part only; not given: Variable domains, not shown: another chain or arm of the molecule)
constant: B1 constant with A140S, S316M
B9 registered a Kd of 21.8 nM. This Kd is about 3.1-fold lower than that of the molecule before.

B10: feline IgG1a S428G (antibody, part only; not given: Variable domains, not shown: another chain or arm of the molecule)
constant: B1 constant with A140S, S316G
B10: the equilibrium dissociation constant (Kd) is 46.3 nM. Compared with the last molecule, the Kd is about 2.1-fold higher.

B11: feline IgG1a T256E (antibody, part only; not given: variable domains and light chain, not shown: another chain or arm of the molecule)
constant: B1 constant with A140S, T142E
Turning to B11, the dissociation constant (Kd) is 50.9 nM.

B12: feline IgG1a S428W (antibody, part only; not given: Variable domains, not shown: another chain or arm of the molecule; small tags and cut ends)
constant: B1 constant with A140S, S316W
In turn, B12 returned a Kd of 36.4 nM.

B13: feline IgG1a T256D (antibody, part only; not given: Variable domains, not shown: another chain or arm of the molecule)
constant: B1 constant with A140S, T142D
With B13, the Kd was 244 nM.

B14: feline IgG1a S254Q (antibody, part only; not given: Variable domains, not shown: another chain or arm of the molecule)
constant: B1 constant with A140Q
The molecule B14 returned a dissociation constant (Kd) of 24.7 nM.

B15: feline IgG1a S428L (antibody, part only; not given: Variable domains, not shown: another chain or arm of the molecule)
constant: B1 constant with A140S, S316L
Regarding B15, the dissociation constant Kd is 81.5 nM.

B16: feline IgG1a S434I (antibody, part only; not given: Variable domains, not shown: another chain or arm of the molecule)
constant: B1 constant with A140S, S322I
B16 displayed a dissociation constant Kd of 14.4 nM.

B17: feline IgG1a T256R (antibody, part only; not given: Variable domains, not shown: another chain or arm of the molecule)
constant: B1 constant with A140S, T142R
Molecule B17 showed a Kd of 27.7 nM. This Kd is about 1.9-fold higher than that of the molecule before.

B18: feline IgG1a T256Q (antibody, part only; not given: Variable domains, not shown: another chain or arm of the molecule)
constant: B1 constant with A140S, T142Q
In turn, B18 returned a Kd of 58.6 nM.

B19: feline IgG1a T256C (antibody, part only; not given: Variable domains, not shown: another chain or arm of the molecule)
constant: B1 constant with A140S, T142C
Consider B19, for which the dissociation constant Kd worked out at 154 nM.

B20: feline IgG1a S428V (antibody, part only; not given: Variable domains, not shown: another chain or arm of the molecule; small tags and cut ends)
constant: B1 constant with A140S, S316V
For B20, the dissociation constant Kd came to 19.2 nM.

B21: feline IgG1a S428H (antibody, part only; not given: Variable domains, not shown: another chain or arm of the molecule)
constant: B1 constant with A140S, S316H
Consider B21, for which the Kd stood at 41.6 nM.

B22: feline IgG1a S254N (antibody, part only; not given: Variable domains, not shown: another chain or arm of the molecule)
constant: B1 constant with A140N
For B22, the Kd was determined as 25.7 nM.

B23: feline IgG1a S254D (antibody, part only; not given: Variable domains, not shown: another chain or arm of the molecule)
constant: B1 constant with A140D
Molecule B23 displayed a Kd of 474 nM. Against the preceding molecule, the Kd is about 18-fold higher.

B24: feline IgG1a S254R (antibody, part only; not given: Variable domains, not shown: another chain or arm of the molecule)
constant: B1 constant with A140R
B24 displayed a Kd of 21.5 nM.

B25: feline IgG1a S254F (antibody, part only; not given: Variable domains, not shown: another chain or arm of the molecule)
constant: B1 constant with A140F
For B25, the dissociation constant Kd is 568 nM.

B26: feline IgG1a T256G (antibody, part only; not given: variable domains and light chain, not shown: another chain or arm of the molecule)
constant: B1 constant with A140S, T142G
With B26, the dissociation constant (Kd) turned out to be 76.9 nM.

B27: feline IgG1a S428C (antibody, part only; not given: Variable domains, not shown: another chain or arm of the molecule)
constant: B1 constant with A140S, S316C
As for B27, the Kd came to 61.4 nM.

B28: feline IgG1a S254K (antibody, part only; not given: Variable domains, not shown: another chain or arm of the molecule)
constant: B1 constant with A140K
B28 displayed a dissociation constant (Kd) of 46.5 nM.

B29: feline IgG1a S428N (antibody, part only; not given: Variable domains, not shown: another chain or arm of the molecule; small tags and cut ends)
constant: B1 constant with A140S, S316N
Take B29: the Kd came to 42.9 nM.

B30: feline IgG1a S428A (antibody, part only; not given: Variable domains, not shown: another chain or arm of the molecule)
constant: B1 constant with A140S, S316A
B30 had a Kd of 119 nM.

B31: feline IgG1a S428Q (antibody, part only; not given: Variable domains, not shown: another chain or arm of the molecule; small tags and cut ends)
constant: B1 constant with A140S, S316Q
B31: the Kd is 38.3 nM. Against the preceding molecule, the Kd is about 3.1-fold lower.

B32: feline IgG1a S254Y (antibody, part only; not given: Variable domains, not shown: another chain or arm of the molecule)
constant: B1 constant with A140Y
B32: the Kd came to 78.5 nM.

B33: feline IgG1a S428D (antibody, part only; not given: Variable domains, not shown: another chain or arm of the molecule)
constant: B1 constant with A140S, S316D
B33 displayed a Kd of 362 nM.

B34: feline IgG1a S254E (antibody, part only; not given: Variable domains, not shown: another chain or arm of the molecule)
constant: B1 constant with A140E
The molecule B34 showed a Kd of 0.711 nM.

B35: feline IgG1a S254L (antibody, part only; not given: variable domains and light chain, not shown: another chain or arm of the molecule)
constant: B1 constant with A140L
With B35, the Kd turned out to be 42.7 nM.

B36: feline IgG1a T256V (antibody, part only; not given: Variable domains, not shown: another chain or arm of the molecule)
constant: B1 constant with A140S, T142V
B36 returned a Kd of 19.5 nM. Against the preceding molecule, the Kd is about 2.2-fold lower.

B37: feline IgG1a S428F (antibody, part only; not given: Variable domains, not shown: another chain or arm of the molecule)
constant: B1 constant with A140S, S316F
Turning to B37, the Kd was 83.9 nM.

B38: feline IgG1a S254H (antibody, part only; not given: Variable domains, not shown: another chain or arm of the molecule)
constant: B1 constant with A140H
The molecule B38 gave a dissociation constant Kd of 1850 nM.

B39: feline IgG1a S434K (antibody, part only; not given: variable domains and light chain, not shown: another chain or arm of the molecule)
constant: B1 constant with A140S, S322K
Consider B39, for which the dissociation constant (Kd) was 6.76 nM.

B40: feline IgG1a S252M (antibody, part only; not given: Variable domains, not shown: another chain or arm of the molecule)
constant: B1 constant with S138M, A140S
As for B40, the Kd is 55 nM.

B41: feline IgG1a S252W (antibody, part only; not given: Variable domains, not shown: another chain or arm of the molecule)
constant: B1 constant with S138W, A140S
As for B41, the dissociation constant (Kd) amounted to 80.3 nM.

B42: feline IgG1a T256M (antibody, part only; not given: Variable domains, not shown: another chain or arm of the molecule)
constant: B1 constant with A140S, T142M
B42 returned a Kd of 19.3 nM.

B43: feline IgG1a S428I (antibody, part only; not given: Variable domains, not shown: another chain or arm of the molecule)
constant: B1 constant with A140S, S316I
On to B43, for which the Kd worked out at 40.8 nM.

B44: feline IgG1a S434L (antibody, part only; not given: Variable domains, not shown: another chain or arm of the molecule)
constant: B1 constant with A140S, S322L
With B44, the dissociation constant Kd came to 8.67 nM.

B45: feline IgG1a S434N (antibody, part only; not given: Variable domains, not shown: another chain or arm of the molecule)
constant: B1 constant with A140S, S322N
Regarding B45, the equilibrium dissociation constant (Kd) stood at 6.94 nM.

B46: feline IgG1a T256P (antibody, part only; not given: Variable domains, not shown: another chain or arm of the molecule)
constant: B1 constant with A140S, T142P
B46 came in with a Kd of 57.6 nM.

B47: feline IgG1a T256I (antibody, part only; not given: Variable domains, not shown: another chain or arm of the molecule)
constant: B1 constant with A140S, T142I
In the case of B47, the Kd stood at 115 nM.

B48: feline IgG1a S428P (antibody, part only; not given: Variable domains, not shown: another chain or arm of the molecule; small tags and cut ends)
constant: B1 constant with A140S, S316P
In the case of B48, the Kd was found to be 18 nM.

B49: feline IgG1a S428K (antibody, part only; not given: Variable domains, not shown: another chain or arm of the molecule)
constant: B1 constant with A140S, S316K
Molecule B49 displayed an equilibrium dissociation constant (Kd) of 70.2 nM.

B50: feline IgG1a T256W (antibody, part only; not given: Variable domains, not shown: another chain or arm of the molecule)
constant: B1 constant with A140S, T142W
In turn, B50 came in with a dissociation constant Kd of 25.2 nM.

B51: feline IgG1a S254M (antibody, part only; not given: Variable domains, not shown: another chain or arm of the molecule)
constant: B1 constant with A140M
Consider B51, for which the Kd was 101 nM.

B52: feline IgG1a S434M (antibody, part only; not given: Variable domains, not shown: another chain or arm of the molecule)
constant: B1 constant with A140S, S322M
B52 came in with a dissociation constant (Kd) of 2.8 nM.

B53: feline IgG1a S434P (antibody, part only; not given: Variable domains, not shown: another chain or arm of the molecule)
constant: B1 constant with A140S, S322P
B53 came in with an equilibrium dissociation constant (Kd) of 5.64 nM.

B54: feline IgG1a T256N (antibody, part only; not given: Variable domains, not shown: another chain or arm of the molecule)
constant: B1 constant with A140S, T142N
Consider B54, for which the Kd worked out at 77.4 nM.

B55: feline IgG1a S428T (antibody, part only; not given: Variable domains, not shown: another chain or arm of the molecule; small tags and cut ends)
constant: B1 constant with A140S, S316T
B55 showed a dissociation constant Kd of 27.3 nM. This Kd is about 2.8-fold lower than that of the molecule before.

B56: feline IgG1a T256A (antibody, part only; not given: Variable domains, not shown: another chain or arm of the molecule)
constant: B1 constant with A140S, T142A
The molecule B56 yielded a Kd of 40.6 nM.

B57: feline IgG1a S254W (antibody, part only; not given: Variable domains, not shown: another chain or arm of the molecule)
constant: B1 constant with A140W
Take B57: the Kd worked out at 60.9 nM.
